T1: recombinant MurAB-His6 (E. faecalis, UniProt Q836E5 1-430)
T1 construct: MurAB, UDP-N-acetylglucosamine 1-carboxyvinyl transferase (secondary homolog) of Enterococcus faecalis; wild-type allele amplified from OG1RF genomic DNA; also called secondary UNAG-CTase; source: E. coli C43(DE3), purified
T1 sequence: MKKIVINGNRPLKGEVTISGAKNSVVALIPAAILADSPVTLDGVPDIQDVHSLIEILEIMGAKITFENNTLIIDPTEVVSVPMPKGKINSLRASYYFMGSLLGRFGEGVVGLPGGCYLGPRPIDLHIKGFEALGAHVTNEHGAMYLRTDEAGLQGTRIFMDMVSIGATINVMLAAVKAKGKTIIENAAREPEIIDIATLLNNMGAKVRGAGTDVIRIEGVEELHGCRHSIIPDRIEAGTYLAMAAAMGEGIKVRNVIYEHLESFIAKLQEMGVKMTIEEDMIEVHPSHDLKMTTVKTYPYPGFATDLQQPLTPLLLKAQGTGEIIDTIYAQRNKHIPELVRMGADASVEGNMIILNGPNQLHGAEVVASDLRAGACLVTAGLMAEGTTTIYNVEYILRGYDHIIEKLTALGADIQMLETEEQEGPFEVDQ

B1: purified recombinant wild-type IreB (expressed as His6-SUMO-IreB) (natural protein)
chain: MGFTDETVRFDFDDNRKKAISETLETVYRALEEKGYNPINQIVGYLLSGDPAYIPRYQDARNLIRRHERDEIMEELTKYYLANHGIDIK
notes: IreB of Enterococcus faecalis; wild-type allele amplified from OG1RF genomic DNA; IreB for the enzymatic assays was purified in MOPS buffer; also called unphosphorylated IreB; source: E. coli BL21(DE3), purified (Ni-charged resin)

What was measured:
[1] = target: recombinant MurAB-His6 (E. faecalis) (UniProt Q836E5); assay: thermal shift assay; 2.5 uM MurAB with rising molar ratios of test protein, 10x SYPRO Orange, 50 mM Tris, 25 mM NaCl, pH 7.5; change of the MurAB melt temperature
recombinant MurAB-His6 [2] = target: T1, recombinant MurAB-His6; assay: as above; conditions: both partners purified
recombinant MurAB-His6 [3] = target: T1, recombinant MurAB-His6; assay: cell-based or functional assay

Molecule | maximum shift of the MurAB Tm [1] | maximum shift of the MurAB Tm (recombinant MurAB-His6 [2]) | UNAG-CTase activity of purified MurAB (release of inorganic phosphate) with 10-fold molar excess of IreB: decrease of the reaction rate (recombinant MurAB-His6 [3])
purified recombinant IreB D50A (expressed as His6-SUMO-IreB D50A) (from UniProt Q836B3 1-89) (natural protein) | 1.5 °C |  | 
B1 |  | 5 °C | ~25%

From publication PMC12077105, “PASTA kinase signaling regulates peptidoglycan synthesis in Enterococcus faecalis by direct inhibition of UDP-N-acetylglucosamine 1-carboxyvinyl transferase activity” (mBio, 2025)
